Results published in patent publication EP4413995A1 (Université de Franche-Comté, dated 2024).

Experiments:
[1] = target: T1, CD123 (recombinant, soluble, analyte of the Octet assay) (human, UniProt P26951 19-305); assay: BLI (Octet, ForteBio), antibody immobilized on streptavidin biosensors, CD123 in solution (row of 25 nM)
T1 chain: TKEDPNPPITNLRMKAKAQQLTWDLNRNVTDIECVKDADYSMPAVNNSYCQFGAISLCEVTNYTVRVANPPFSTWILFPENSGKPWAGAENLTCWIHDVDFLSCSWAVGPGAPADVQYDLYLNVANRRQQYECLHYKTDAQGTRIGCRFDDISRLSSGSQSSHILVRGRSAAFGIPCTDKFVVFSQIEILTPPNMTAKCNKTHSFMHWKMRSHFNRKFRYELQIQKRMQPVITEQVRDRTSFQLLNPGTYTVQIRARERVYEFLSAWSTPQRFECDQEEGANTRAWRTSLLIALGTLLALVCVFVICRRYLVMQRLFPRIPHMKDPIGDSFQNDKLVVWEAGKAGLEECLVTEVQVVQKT

[2] = target: T1, CD123 (recombinant, soluble, analyte of …); assay: BLI (Octet, ForteBio), antibody immobilized on streptavidin biosensors, CD123 in solution (row of 50 nM)
[3] = target: T1, CD123 (recombinant, soluble, analyte of …); assay: BLI (Octet, ForteBio), antibody immobilized on streptavidin biosensors, CD123 in solution (row of 6.25 nM)
[4] = target: T1, CD123 (recombinant, soluble, analyte of …); assay: BLI (Octet, ForteBio), antibody immobilized on streptavidin biosensors, CD123 in solution (row of 12.5 nM)

- Kd [1]: < 1 pM
- koff [1]: < 1e-07 s⁻¹
- kon [1]: 122000 M⁻¹ s⁻¹
- Kd [2]: < 1 pM
- koff [2]: < 1e-07 s⁻¹
- kon [2]: 122000 M⁻¹ s⁻¹
- Kd [3]: < 1 pM
- koff [3]: < 1e-07 s⁻¹
- kon [3]: 122000 M⁻¹ s⁻¹
- Kd [4]: < 1 pM
- koff [4]: < 1e-07 s⁻¹
- kon [4]: 122000 M⁻¹ s⁻¹
B1: 18B4D5 (antibody, V domains shown)
VH: EVKLQESGPGLVKPSQSLSLTCTVTGYSITSDYTWNWIRQFPGNKLEWMGYISFSGSTSYNPSLKSRLSITRDTSKNQFFLQLNSVTTEDTATYYCARGLDYWGQGTTLTVSS
VL: DIVMTQSPAIMSASLGERVTMTCTASSSISSSYLYWYQQKPGSSPKLWIYSTSNLASGVPARFSGSGSGTSYSLTISSMEAEDAATYYCHQLHRSPWTFGGGTKLEIKR
